Consider one substance from patent publication US5262318.

This series relates to SphI restriction endonuclease (recombinant, NEB#808 / pEGsph50-2; gene within SEQ ID NO:2) (Streptomyces phaeochromogenes). Put plainly: cleavage_in_vitro. As to conditions: 150 units, 4 h, 37 C; nonspecific endonuclease control.

Consider phiX174 RFI DNA, for which the activity (% converted to RF II) is below 25.
